Positions count from the first letter of the chain named. Names may count otherwise.
Experiments:
[1] = biological target: the molecule itself; assay: SEC-MALS; Superdex S200 10/300, 10mM Tris-HCl pH 7.4, 150mM NaCl, room temperature; loaded at 1, 6.5 and 65 mg/ml (wild type) and 1, 6.8 and 73 mg/ml (F129E/D130A)
[2] = biological target: the molecule itself; assay: crystal structure; zCCDC61^1-170, 4.62 mg/ml, 100 mM Citric acid pH 5.0, 1 M LiCl, sitting drop, 20°C
[3] = biological target: the molecule itself; assay: AUC; sedimentation equilibrium, 12, 4 and 1.3 mg/ml, 11,600, 19,700 and 34,000 rpm, 4°C; dimer to monomers
[4] = biological target: the molecule itself; assay: AUC; velocity sedimentation, approximately 480 μM (7.9 mg/ml), 20 mM Tris-HCl pH 8.0, 150 mM NaCl, 2 mM DTT, 50,000 rpm, 4°C; c(s) distribution

B1: His6-lipoyl-zCCDC61^1-170 (domain or fragment, zebrafish (Danio rerio), UniProt Q08CF3 1-170, looked up)
chain: MEVGTVVQEEMKFRGSEFAVKVEMAERLLIVEISDVVTADQWRGEFGPAYIEDLTRKTGNFKQFPVFCSMLESAVHKSSDSVTLDLLTYSDLELLRNRKAGVVGRPRAQPQSPALSAKRYLILIYTVEFDRIHYPLPLPYLGKPDPAELQKEIRALRSELKTLGLRGDHK
notes: zebrafish (Danio rerio) CCDC61, residues 1-170; The His6-lipoyl domain tag was retained for SEC-MALS to stabilize the protein at high concentrations; also called Lipo-zCCDC61^1-170; wild-type; source: E. coli C41 in 2xTY, purified (Ni-NTA, SEC, HiTrap Q-FF); not shown: His6, N-terminal, kept; lipoyl domain (Bacillus stearothermophilus dihydrolipoamide acetyltransferase), N-terminal, kept
Q: Does B1 bind [1]?
A: Result: binds

B2: His6-lipoyl-zCCDC61^(1-170; F129E/D130A) (domain or fragment, zebrafish (Danio rerio), UniProt Q08CF3 1-170, looked up)
chain: B1 chain with F129E, D130A
notes: zebrafish (Danio rerio) CCDC61, residues 1-170, with F129E and D130A; also called Lipo-zCCDC61^(1-170); head-to-head dimerization-deficient mutant; source: E. coli C41 in 2xTY, purified (Ni-NTA, SEC, HiTrap Q-FF); not shown: His6, N-terminal, kept; lipoyl domain (Bacillus stearothermophilus dihydrolipoamide acetyltransferase), N-terminal, kept
Q: Does B2 bind [1]?
A: Result: binds

B3: zebrafish CCDC61 (residues 1–170; zCCDC61^1-170), lipoyl-domain tag removed (domain or fragment, zebrafish (Danio rerio))
chain: GGSMEVGTVVQEEMKFRGSEFAVKVEMAERLLIVEISDVVTADQWRGEFGPAYIEDLTRKTGNFKQFPVFCSMLESAVHKSSDSVTLDLLTYSDLELLRNRKAGVVGRPRAQPQSPALSAKRYLILIYTVEFDRIHYPLPLPYLGKPDPAELQKEIRALRSELKTLGLRGDHK
notes: extra residues Gly-Gly-Ser left at the N-terminus after the tag was cleaved with tev protease; zebrafish (Danio rerio) CCDC61, residues 1-170, head and part of the coiled-coil domain; Homo-tetramer in the crystal; source: E. coli C41, purified (Ni-NTA, tev cleavage, HisTrap FF, HiTrap Q HP flow through, PD-10); not shown: His tag, N-terminal, cleaved; lipoyl domain (Bacillus stearothermophilus …)
Q: With B3 as the protein, how does the “stoichiometry N” value [2] read?
A: Its value is 4.

B4: N-terminal head domain of human CCDC61 (hCCDC61^1-143) (domain or fragment)
chain: GSMDQPAGLQVDYVFRGVEHAVRVMVSGQVLELEVEDRMTADQWRGEFDAGFIEDLTHKTGNFKQFNIFCHMLESALTQSSESVTLDLLTYTDLESLRNRKMGGRPGSLAPRSAQLNSKRYLILIYSVEFDRIHYPLPLPYQGKP
notes: extra residues Gly-Ser left at the N-terminus after the His-GST tag was cleaved with tev protease; gene codon optimized for E. coli and synthesized; The crystal (PDB 6HXT) was of the seleno-methionine-substituted protein; also called hCCDC61 head domain; source: E. coli BL21(DE3), purified (GSTrap, tev cleavage, HisTrap flow through, HiTrap Q, PD-10); not shown: His tag, N-terminal, cleaved; GST, …
Q: What does the source list for B4?
A: Kd [3]: 170 ± 18 µM; stoichiometry N [4]: 2

From paper PMC7267773, “CCDC61/VFL3 Is a Paralog of SAS6 and Promotes Ciliary Functions” (Structure(London, England:1993), 2020)
